Data published in doi:10.1101/2021.04.26.441501 (bioRxiv, 2021).

Biological target: SARS-CoV-2 RBD (residues 319-514) with C-terminal hexahistidine tag (Severe acute respiratory syndrome …, UniProt P0DTC2)
Experiment: ELISA

B1: SARS2-38 (murine IgG1 mAb) (antibody, V domains shown)
VH: QVQLKESGPGLVAPSQSLSITCTVSGFSLTRYGVHWVRQPPGKGLEWLGVIWADGSTYYNSALMSRLSISKDNSKSQVFLNMNSLQTDDTAKYYCARDGRGYDDYWGQGTTLTVSS
VL: QIVLTQSPAIMSASPGEKVTMTCSASSTVSFIYWYQQKPGSSPRLLIYDTSNPASGVPVRFSGSGCGTSYYLTISRMEAEDAATYYCQQWNTYPLTFGAGTKLELK
  binding result: binds
